Data on two molecules can be found in article PMC11940065 (2025).

In general, Kd refers to the constant that tells how readily two partners part at equilibrium. Read a low Kd as a tighter complex.

Changes are numbered by the printed parent chain. Numbers in names are those of the source.

The target in the assay is Methionine-1-linked triubiquitin (UniProt P0CG48 1-76; P0CG48 1-76; P0CG48 1-76). The assay can be described thus: MST.
Chain of Methionine-1-linked triubiquitin (P0CG48 1-228, one chain of several): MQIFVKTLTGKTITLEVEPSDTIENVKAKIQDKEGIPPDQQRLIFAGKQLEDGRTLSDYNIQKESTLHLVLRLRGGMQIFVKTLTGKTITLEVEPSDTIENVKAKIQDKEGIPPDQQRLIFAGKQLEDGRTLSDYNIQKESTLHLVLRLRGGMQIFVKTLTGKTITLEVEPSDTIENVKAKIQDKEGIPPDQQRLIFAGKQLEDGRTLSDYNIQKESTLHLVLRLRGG

B1: AHD1-UBAN E444F (domain or fragment)
chain: QRLNKALEEALSIQTPPSSPPTAFGSPFGAGALLRKQELVTQNELLKQQVKIFEEDFQRERSDRERMNEEKEELKKQVEKLQAQVTLSNAQLK
Regarding B1, binding was put at a Kd of 3.52 µM.

B2: AHD1-UBAN E425Q (domain or fragment)
chain: B1 chain with E9Q, F28E
B2 registered a Kd of 5.5 µM.
